Experiment: yeast display, Sf9 membrane polyspecificity reagent, FACS + sequencing; frameworks hold sequencing errors
Outline: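 Polyreactivity labels are assigned by the sorting gate from which each nanobody was recovered. The gates were low and high (top ~1%), set on anti-HA fluorescence for expression and streptavidin fluorescence for reagent binding. Before sorting, galactose-induced (36–48 hours) yeast display cells were stained for 1 hour at 4 °C with 10% biotinylated, detergent-solubilized Sf9 membrane reagent.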
In the case of “QVQLVESGGGLVQAGGSLRLSCAASGRIFSNNVMGWNRQGPGKERELVATISTDGRTNYADSVKGRFTISRDNAKNTVYLQMNSQKPEDTAVSYCAATGVTLLLSSKSDYWGQGTQVTVSS”, the “polyreactivity (PSR sort gate)” value is reported as “low polyreactivity”.
For “QVQLVESGGGLVQAGGSLRLSCAASGRIFSNYAMGWYRQAPGKERELVAAISYSGDSTYYADSVKGRFTISRDNAKNTVYLQMNSLKPEDTAVYYCAAVRSYRRYPQSSDLYYYWGQGTQVTVSS”, the “polyreactivity (PSR sort gate)” value was “high polyreactivity”.
With “QVQLVESGGGLVQAGGSLRLSCAASGRIFSPNAMGWYRQAPGKERELVAAISWRGRTYYADSVKGRFTISRDNAKNTVYLQMNSLKPEDTAVYYCNAPYKYVRGDYWGQGTQVTVSS” the “polyreactivity (PSR sort gate)” value was “high polyreactivity”.
With “QVQLVESGGGLVQAGGSLRLSCAASGRIFSPNAMGWYRQAPGKERELVAAITRGGSTNYADSVKGRFTISRDNAKNTVYLQMNSLKPEDTAVYYCAAQLAKTISGRGYNSWGQGTQVTVSS” the “polyreactivity (PSR sort gate)” value was “low polyreactivity”.
For “QVQLVESGGGLVQAGGSLRLSCAASGRIFSPYAMGWYRQAPGKERELVAAISSSGTYYADSVKGRFTISRDNAKNTVYLQMNSLKPEDTAVYYCNARRYWGRYDYWGQGTQVTVSS”, the “polyreactivity (PSR sort gate)” value was “high polyreactivity”.
In the case of “QVQLVESGGGLVQAGGSLRLSCAASGRIFSPYAMGWYRQAPGKERELVAAITSSGGSSYYADSVKGRFTISRDYAKNTVYLQMNSLKPEDTAVYYCNARRGRYTPSVNYWGQGTQVTVSS”, the “polyreactivity (PSR sort gate)” value is reported as “high polyreactivity”.
With “QVQLVESGGGLVQAGGSLRLSCAASGRIFSPYAMGWYRQAPGKERELVATITSGGSTNYADSVKGRFTISRDNAKNTVYLQKNSLKPEDTAVYYCNAVYYSNPYYYSRVWQYYYWGQGTQVTVSS” the “polyreactivity (PSR sort gate)” value was “low polyreactivity”.
For “QVQLVESGGGLVQAGGSLRLSCAASGRIFSRNAMGWSRQAPGKERELVAAISRSGGTTYYADSVKGRFTISRDNAKNTVYLQMISLKPEDTAVYYCAAYFWFYVQYEYWGQGTQVTVSS”, the “polyreactivity (PSR sort gate)” value was “high polyreactivity”.
In the case of “QVQLVESGGGLVQAGGSLRLSCAASGRIFSRNAMGWYRQAPGKERELVAAISGSGGSTYYADSVKGRFTISRDNAKNTVYLQMNSLKPEDTAVYYCNKFGYHREYDYWGQGTQVTVSS”, the “polyreactivity (PSR sort gate)” value is reported as “low polyreactivity”.
In the case of “QVQLVESGGGLVQAGGSLRLSCAASGRIFSRNAMGWYRQAPGKERELVAAISRTGGSTYYADSVKGRFTISRDNAKNTVYLQMNSLKPEDTAVYYCADAYYRKSSYGQIVEYDYWGQGTQVTVSS”, the “polyreactivity (PSR sort gate)” value is reported as “high polyreactivity”.
In the case of “QVQLVESGGGLVQAGGSLRLSCAASGRIFSRNAMGWYRQAPGKERELVAGISARGGRTYYADSVKGRFTNSRDNAKNTVYLQMNSLKPEDTAVYYCAASFSAIRGGVRVTIDYYWGQGTQVTVSS”, the “polyreactivity (PSR sort gate)” value is reported as “high polyreactivity”.
In the case of “QVQLVESGGGLVQAGGSLRLSCAASGRIFSRNAMGWYRQAPGKEWELVARITVTVGSTYYADSVKGRFTISRDNAKNTVYLQMNSLKPEDTAVYYCAADAGYRYDCPYNYYYWGQGTQVTVSS”, the “polyreactivity (PSR sort gate)” value is reported as “low polyreactivity”.
With “QVQLVESGGGLVQAGGSLRLSCAASGRIFSRYAKGWYRQAPGKERELVAAINKSGGSTYYADSVKGRFTISRDNAKNTVYLQMNSLKPEDTAVYYCNAVYYWYKGDYWGQGTQVTVSS” the “polyreactivity (PSR sort gate)” value was “high polyreactivity”.
In the case of “QVQLVESGGGLVQAGGSLRLSCAASGRIFSRYAMGWYLQAPGKERELVAAISWSGGSTYYADSVKGRFTISRDNAKNTVYLQMNSLKPEDTAVYYCAAKRQYTEYNYWGQGTQVTVSS”, the “polyreactivity (PSR sort gate)” value is reported as “high polyreactivity”.
With “QVQLVESGGGLVQAGGSLRLSCAASGRIFSRYAMGWYRQAPGKERELVAAISKSGGRTYYADSVKGRFTISRDNAKNTVYLQKNSLKPEDTAVYYCATVIFRSSGYYYWGQGTQVTVSS” the “polyreactivity (PSR sort gate)” value was “high polyreactivity”.
In the case of “QVQLVESGGGLVQAGGSLRLSCAASGRIFSRYAMGWYRQAPGKERELVAAITRRGGSTYYADSVKGRFTISRDNAKNTVYLQMNSLKPEDTAVYYCAADGQWPWWLLRYDYWGQGTQVTVSS”, the “polyreactivity (PSR sort gate)” value is reported as “high polyreactivity”.
With “QVQLVESGGGLVQAGGSLRLSCAASGRIFSRYTMGGYRQAPGKERELVAANSYRGGSTYYADSVKGRFTISRDNAKNTVYLQMNSLKPEDTAVYYCAARVQAIYRYDYWGQGTQVTVSS” the “polyreactivity (PSR sort gate)” value was “high polyreactivity”.
With “QVQLVESGGGLVQAGGSLRLSCAASGRIFSRYTMGWYRQAPGKERELVATIRISGGNTYYADSVKGRFTISRDNAKNTVYLQMNSLKPDDTAVYYCAARYGWVQNTYTMYFWGQGTQVTVSS” the “polyreactivity (PSR sort gate)” value was “high polyreactivity”.
In the case of “QVQLVESGGGLVQAGGSLRLSCAASGRIFSSYAMGWYRQAPWKERELVAAISGSGGRTYYADSVKGRFTISRDNAKNTVYLQMNSLKPEDTAVYYCNARRRSPYSTGVAYDYWGQGTQVTVSS”, the “polyreactivity (PSR sort gate)” value is reported as “high polyreactivity”.
With “QVQLVESGGGLVQAGGSLRLSCAASGRIFSSYTMGWYRQAPGKERELVAAISWRGGSTYYADSVKGRFTISRDNAKNTVYLQMNSLKPEDTAVYYCAADSRSHPGDYWGQGTQVTVSS” the “polyreactivity (PSR sort gate)” value was “low polyreactivity”.
In the case of “QVQLVESGGGLVQAGGSLRLSCAASGRIFSTYAMGWYRQAPGKERELVAAINKIGGSTYYADSVKGRFTISRDNAKNTVYLQMNSLIPEDTAVYYCAADAPYYPVRRYYYWGQGTQVTVSS”, the “polyreactivity (PSR sort gate)” value is reported as “low polyreactivity”.
For “QVQLVESGGGLVQAGGSLRLSCAASGRIFSTYTMGWYRQAPGKEMELVAAIRANGGSTYYADSVKGRFTISRDNAKNTVYLQMNSLKPEDTAVYYCAALYRRYPYHYDSWGQGTQVTVSS”, the “polyreactivity (PSR sort gate)” value was “high polyreactivity”.
For “QVQLVESGGGLVQAGGSLRLSCAASGRIFSVNAMGWYRQATGKERELVASITMSGGSTYYADSVKGRFTISRDNAKNTVYIQMNSLKPEDTAVYYCAKGWSRYNDRERDDEYWGQGTQVTVSS”, the “polyreactivity (PSR sort gate)” value was “low polyreactivity”.
With “QVQLVESGGGLVQAGGSLRLSCAASGRIFSVNVMVWYRQAPGKERELVAAITWSVGSTYYADSVKARFTISRDNAKYTVSLQMYSLKPEDTAVYYSAARVPPVYGRVGGYHYWGQGTQVTVSS” the “polyreactivity (PSR sort gate)” value was “low polyreactivity”.
In the case of “QVQLVESGGGLVQAGGSLRLSCAASGRIFSVYAMGWSRQAPGKERELVATIRWGGGSTYYADSVKGRFTISRDNAKNTVYLQMNSLKPEDTAVYYCAAGWRGGRYRYFAYDYWGQGTQVTVSS”, the “polyreactivity (PSR sort gate)” value is reported as “high polyreactivity”.
In the case of “QVQLVESGGGLVQAGGSLRLSCAASGRIFSVYAMGWYRQAPGKERELVAGITSSGGSTYYADSVKGRFTISRDNAKNTVYLQMNSLKPEDTAVYYCNAYSQYWLGNNYWGQGTQVTVSS”, the “polyreactivity (PSR sort gate)” value is reported as “high polyreactivity”.
For “QVQLVESGGGLVQAGGSLRLSCAASGRIFSVYSMGWYRQAPGKERELVAAIRSGDRTNYADSVKGRFTISRDNAKNTVYLQMISLKPEVTAVYYCAAVRYPNWYDYWGHGTQVTVSS”, the “polyreactivity (PSR sort gate)” value was “high polyreactivity”.
With “QVQLVESGGGLVQAGGSLRLSCAASGRIFSWYAMGWYRQAPGKERELVAAISWNGGSTYYADSVKGRFTISRDNAKNTVYLQMNSLKPEDTAVYYCAATYRHYGYDSWGQGTQVTVSS” the “polyreactivity (PSR sort gate)” value was “high polyreactivity”.
With “QVQLVESGGGLVQAGGSLRLSCAASGRIFSWYAMGWYRQAPGKEREMVARITTRGGNTYYADSVKGRFTISRDNAKNTVFLQMNSLKPEDTAVYYCAARHPYPIYDYWGQGTQVTVSS” the “polyreactivity (PSR sort gate)” value was “low polyreactivity”.
In the case of “QVQLVESGGGLVQAGGSLRLSCAASGRIFSWYDMGWDRQAPGKERELVAAISSGGSTIYADSVKGRFTISRDNAKQTVYLQMNSLKPEDTAVSYCNKSPSWWRYKTGLDYWGQGTQVTVSS”, the “polyreactivity (PSR sort gate)” value is reported as “high polyreactivity”.
For “QVQLVESGGGLVQAGGSLRLSCAASGRIFSYAMGWYRQAPGKERELVAGISRSGGSTYYADSVKGRFTISRDNAKNTVYLQMNSLKPEDTAVYYCAAVKIRTVYKYNYWGQGTQVTVSS”, the “polyreactivity (PSR sort gate)” value was “high polyreactivity”.
With “QVQLVESGGGLVQAGGSLRLSCAASGRIFSYNAMGWYRQAPGKERELVAAIRVRGGSTYYADSVKGRFTLSRDNAKNTVYLQMNSLKPEDTAVYYCNASDYKISATNAVVRYYYWGQGTQVTVSS” the “polyreactivity (PSR sort gate)” value was “high polyreactivity”.
For “QVQLVESGGGLVQAGGSLRLSCAASGRIFSYNAMGWYRQAPGKERELVAAISSGGSTYYADSVKGRFTISRDNAKNTVYLQMNSLKPEDTAVYYCAADRRYYSDMYYWGQGTQVTVSS”, the “polyreactivity (PSR sort gate)” value was “low polyreactivity”.
In the case of “QVQLVESGGGLVQAGGSLRLSCAASGRIFSYNAMGWYRQAPGKERELVAAISYRGGSTYYADSVKGRFTISRDNAKNTVYLQMNSLKPEDTAVYYCNAEAYYPYGYDYWGQGTQVSVSS”, the “polyreactivity (PSR sort gate)” value is reported as “low polyreactivity”.
In the case of “QVQLVESGGGLVQAGGSLRLSCAASGRIFSYNAMGWYRQAPGKERELVAAITGGGSTNYADSVQGRFTISRDNAKNTVYLHMTSLKPEDTAVYYCAADARGYGYYYWGQGTQVTVSS”, the “polyreactivity (PSR sort gate)” value is reported as “high polyreactivity”.
In the case of “QVQLVESGGGLVQAGGSLRLSCAASGRIFSYNAMGWYRQAPGQERELVAAITTGGSTYYADSVKGRFTISRDNAKNTVYLQMNSLKPEDTAVYYCNKLGYYYDRRYDYWRQGTQVTVSS”, the “polyreactivity (PSR sort gate)” value is reported as “high polyreactivity”.
For “QVQLVESGGGLVQAGGSLRLSCAASGRIFSYNARGWYRQAPGKERELVAAISSDGSTYYADSVKGRFTISRDNAKNTVYLQMNSRKPEDTAVYYCAARQVLWFDYTTAQVGSYKVNSWGQGTQVTVSS”, the “polyreactivity (PSR sort gate)” value was “low polyreactivity”.
For “QVQLVESGGGLVQAGGSLRLSCAASGRIFSYNVMGWYRQAPGKERELVAAITSNDGSTYYADSVKGRFTISRDNAKNTVYLQMNSLKPEVTAVYYCNADYGPVSLKEPFRDDYWGQGNQVTVSS”, the “polyreactivity (PSR sort gate)” value was “low polyreactivity”.
In the case of “QVQLVESGGGLVQAGGSLRLSCAASGRIFSYYALGWYRQAPGKERELVAAISSRGGSTYYADSVKGRFTISRDNAKNTVYLQMNSLKPEDTAVYYCNAYVYQVIGHDYWGQGTQVTVSS”, the “polyreactivity (PSR sort gate)” value is reported as “high polyreactivity”.
With “QVQLVESGGGLVQAGGSLRLSCAASGRIFSYYAMGWYRQAPGKERELVAAISRTGGTTYYADSVKGRFTISRDNAKNTVYLQMNSLNPEDTAVYYCYAVKAPYMRYDYWGQGTQVTVSS” the “polyreactivity (PSR sort gate)” value was “high polyreactivity”.
With “QVQLVESGGGLVQAGGSLRLSCAASGRIFSYYAMGWYRQAPGKERELVAAISTSGGNTYYADSVKGRFTISRDNAKNTVYLQMNSLLTEDTAVYYCAAAYFSSGYKYYYWGQGTQVSVSS” the “polyreactivity (PSR sort gate)” value was “high polyreactivity”.
For “QVQLVESGGGLVQAGGSLRLSCAASGRIFSYYAMGWYRQAPGKERELVAAISYSTTSTYYADSVKGRFTISRDNAKNTVYLQMNSLKPEDTAVYYCAAEFQPGSYTPTYDYWGQGTQVTVSS”, the “polyreactivity (PSR sort gate)” value was “low polyreactivity”.
With “QVQLVESGGGLVQAGGSLRLSCAASGRIFSYYAMGWYRQAPGKERELVATISGSGGSTYYADSVKGRFTISRDNAKNTVFLQMNSLKPEDTAVYYCAATGFIFRGRVRAIPRRYNYWGQGTQVTVSS” the “polyreactivity (PSR sort gate)” value was “high polyreactivity”.
